Source: the nanobody polyreactivity screen of Harvey et al. (2022)

Assay: yeast display, Sf9 membrane polyspecificity reagent, FACS + sequencing; frameworks hold sequencing errors
Method in brief: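 In a synthetic yeast display library (Saccharomyces cerevisiae BJ5465), nanobody expression was induced with galactose for 36–48 hours. FACS gates were set low and high (top ~1%) using anti-HA fluorescence for expression and streptavidin fluorescence for binding of the Sf9 membrane reagent. Each polyreactivity label is drawn from the gate of origin.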

QVQLVESGGGLVQAGGSLRLSCAASGLIIRYYAMGWYRQAPGKERELVAAISYNGGSTYYADSVKGRFTISRDNAKNTVYLQMNSLKPEDTAVYYCAARGRYRIGPGRYGKRYDYWGQGTQVTVSS
polyreactivity (PSR sort gate): high polyreactivity

QVQLVESGGGIVQAGGSLRLSCAASGSTSSSDDMGWYRQAPGQERELVADITSGGRTYYADSVKGRFTISRDNAKNTVYLQMNSLKPEATAVYYCAADTIEHYSLVTPTQGKFDSWGQGTQVTVSS
polyreactivity (PSR sort gate): low polyreactivity

QVQLVESGGGLVQAGGSLRLSCAASGSSFRGYAMGWSRQAPGKERELVAAISRSGGSTYYADSVKGRFTISRDNAKNTVYLQMKSLKPEDTAVYYCNARCSKRSSRGYDYWGQGTQVTVSS
polyreactivity (PSR sort gate): high polyreactivity

QVQLVESGGGLVQAGGSLRLSCAASGFIFAYNAMGWYRQAPGKERELVAAISWSGGSTYYADSVKGRFTISRDNAKNTVYLQMNSLKPEDTAVYYCNKYIRYPFKRYGYWGQGTQVTVSS
polyreactivity (PSR sort gate): high polyreactivity

QVQLVESGGGLVQAGGSLRLSCAASGSIFVGNAMGWSRQAPGKERELVATISRGARRKYADSVKGRFTISRDNAKNTVYLQMNSLIPEDTAVYYCNKVTSYYVFYTPYYSWGQGTQVTVSS
polyreactivity (PSR sort gate): low polyreactivity

QVQLVESGGGLVQAGGSLRLSCAASGSIFGAYAMGWYRQAPGKERELVAAISRSGSTTYYADSVKGRFTISRDNAKNTVYLQMNSLKPEDTAVYYCAARWTRFLSSSDYYYWGQGTQVTVSS
polyreactivity (PSR sort gate): high polyreactivity

QVQLVESGGGLVQAGGSLRLSCAASGSTFSRYAMGWYRQAPGKEREFVAAISRRAGGTYYADSVKGRFTISRDNAKNTVYLQMNSVKPEDTAVYYCAKVLPRDYIGRATYDYWGQGTQVTVSS
polyreactivity (PSR sort gate): high polyreactivity

QVQLVESGGGLVQAGGSLRLSCVASGRIFWANAIGWYRQAPGKERELVAAITYSGGTTYYADSVKGRFTISRDNAKNTVYLQMNSLKPEATAVYYCAKVGRGNNYWGQGTQVTVSS
polyreactivity (PSR sort gate): high polyreactivity

QVQLAESGGGLVQAGGSLRLSCAASGSTFVWYAMGWYRQAPGKEWELVAVIDWSGGSTSYADSVKGRFTISRDNAKNTVYFQMNSLKPEDTAVYYCAADYGHYYGLYYWGQGTQVTVSS
polyreactivity (PSR sort gate): low polyreactivity

QVQLVESGGGLVQAGCSLRLSCAASGFTFLNNAMGWSRQAPGKEREMVAAISQSGTSTYYADSVKGRFTISRDNAKNTVYLQMNSLKPEDTAVYYCAAEDTYPHDYSGGLEYDYWGQGTQVTVSS
polyreactivity (PSR sort gate): low polyreactivity

QVQLVESGGGLVQAGGSLRLSCAASGIIFSPYAMGLYRQAPGKERELVAAISYSGGSTYYADSVKGRFTISRDNAKNTVYLQMNSLKPEDTAVYYCAVVYSYYLAVLGYCDYDYWGQGTQVTVSS
polyreactivity (PSR sort gate): low polyreactivity

QVQLVESGGGLVQAGGSLRLSCAASGRIFGRYAMGWYRQAPGKERELVAGITGSSGTTYYADSVKGRFTISLDNAKNTVYLQMNSLKPEDTAVYYCAVETYWHARSHDYWGQGTQVTVSS
polyreactivity (PSR sort gate): low polyreactivity

QVQLVESGGGLVQAGGSLRLSCAASGFTFPNYAMGWYRQAPGKERELVAAISRRGGRTYYADSVKGRFTISRDNAKNTVYLQMNSLKPEDTAVYYCATEYRGDGPKYDYWGQGTQVTVSS
polyreactivity (PSR sort gate): high polyreactivity

QVQLVESGGGLVQAGGSLRLSCAASGRNFAPNAMGWYRQAPGKERELVAAISGSGTSTYYADSVKGRFTISRDNAKNTVYLQMNSLKPEDTAVYYCAKSARGRRGGFDYWGQGTQVTVSS
polyreactivity (PSR sort gate): low polyreactivity

QVQLVESGGGLVQAGGSLRLSCAASGYILTHYAMGWYRQAPGKERELVAAITSSGGSTYYADSVKGRFTISRDNAKNTVYLQMNSLKPEDTAVYYCAADAGQQEYDYWGQGTQVTVSS
polyreactivity (PSR sort gate): low polyreactivity

QVQLVESGGGLVQAGGSLRLSCAASGSIFDTYAMGWYRQAPGKERELVAAITWSGSSTYYADSVKGRFTISRDNAKNTVSLQMNRLKPEDTAVYYCAKRQYLYTSKYDYWGQGTQVTVSS
polyreactivity (PSR sort gate): high polyreactivity

QVQLVESGGGLVQAGGILRLSCAASGSIIHFYAKGGYREAPGKEWELVAAITSGTSTYYADSVKGRFTISRDNAKNTVYLQMNSLKPDDTAVYYCAAEASHSYYNAYPSYCGSDYWGQGTQVTVSS
polyreactivity (PSR sort gate): low polyreactivity

QVQLVESGGGLVQAGGSLRLSCAASGSTFDSYAMGWYRQAPGKERELVAAITTTGGSTFYADSVKGRFTISRDNAKNTVYLQMNSLKPEDTAVYFCAADDGWQEFEYWGQGTQVTVSS
polyreactivity (PSR sort gate): low polyreactivity

QVQLVESGGGLVQAGGSLRLSCAASGSIFYPYVMGWYRQAPGKERELVAAITTSVGSTYYADSVKGRFTISRDNAKNTVYLQMNSLKPEDTAVYYCAAIYFGSRRPGRYNYWGQGTQVTVSS
polyreactivity (PSR sort gate): high polyreactivity

QVQLVESGGGLVQAGGSLRLSCAASGFTFDRYAMGWYRQAPGKERELVAAISRSGGSTHYADSVKGRFTISRDNAKNTVYLQMNSLKPEDTAVYYCNKRWYYDGYDYWGQGTQVTVSS
polyreactivity (PSR sort gate): high polyreactivity

QVQLVESGGGLVQAGGSLRLSCAASGLTFGGNAMGWYRQAPGKERELVAAISSGGSTNYADSVKGRFTISRDNAKNTVYLQMNSLKPEDTAVYYCAARDRPGNYFTVYGYWGQGTQVTVSS
polyreactivity (PSR sort gate): low polyreactivity

QVQLVESGGGLVQAGGILRLSCAASGRSFDRNAMGWYRQAPGKERELVATISSGDTTDYADSVKGRFTISRDNATNTVYLQMNSLKPEDTAGYYITIYNYWGQGTQVTVSS
polyreactivity (PSR sort gate): low polyreactivity

QVQLVESGGGLVQAGGSLRLSCDASGITQTVYAMGWYRQSPGKERELVAGIDWVGDTYADSVKGRFTISRDNAKNTVYLQMNSLKPEDTAVYYCAADNYSQGVPYDYWGQGSQVTVSS
polyreactivity (PSR sort gate): low polyreactivity

QVQLVESGGGLVQAGGSLRFSCAASGRTFPSKTMGLYRQAPGKERELVAAISKNGGSTYYADSVKGRFTISRDNAKNTVYLQMNSLKPEDTAVYYCNRVRYPRVDYWGQGTQVTVSS
polyreactivity (PSR sort gate): high polyreactivity

QVQLVESGGGLVQAGGSLRLSCAASGITLGYSAMGGYRQAPGKEREFVAGITTSGGTTYYADSVKGRFTISRDNAKNTVYLQMNSLKPEDTAVYYCAVYGGVKRGSFYYWGQGTQVTVSS
polyreactivity (PSR sort gate): low polyreactivity

QVQLVESRGGLVQAGGSLRLSCAASGRTFSGNAMGWYRQAPGKERELVAAITSVGTTNYADSVKGRFTISRDNANNTVYLQMNSLKPEHTAVYYCAADPPSDYYKYDYWGHGTQVTVSS
polyreactivity (PSR sort gate): low polyreactivity

QVQLVESGGGLVQAGGSLRLSCAASGSTFGVNAMGWYRQAPGTERELVADISVRTDSTYYADSVKGRVTISRDNAKNTVYLQMNSLKAEDTAVYYCNAGLGIEYDYWGQGTQVSVSS
polyreactivity (PSR sort gate): low polyreactivity

QVQLVESGGGLVQAGGSLRLSCPASGFNFRYYAIGWYRQAPGKERQLVAAISRIGGSTNYADSVKGRFTISRDNAKNTVYLQLNSLKPEDTAVYYCAVAEGYSPAYLRDYWGQGSQVTVSS
polyreactivity (PSR sort gate): high polyreactivity

QDQLVESGGGIVQAGGSLRLSCAASGSTIPSYAMGWYRQAPGKERELVASITYSDGTTRYADSVKGRFTISRDNAKNTVCLQMNRLKPVDTAVYYCNAVYDREGMDYWGQGTQVTVSS
polyreactivity (PSR sort gate): low polyreactivity

QVQLVESGGGLVQAGGSLRLSCAASGLTFRYYAMGWYRQAPGKERELVAAISWSGGSTYYADSVKGRFTISRDNAKNTVYLQMNSLKPEDTAVYFCNAELYPQWYDSGQTMEYWGQGTQVTVSS
polyreactivity (PSR sort gate): high polyreactivity

QVQLVESGGGLVQAGGSLRLICAASGLTFNYYVMGWYRQAPGKERELVAAISYSGGRTYYADSVKGRFTISRDNANNTVYLQMNSLKPEDTAVYFCNVTGHRNSFIYYGGYEYWGQGTQVTVSS
polyreactivity (PSR sort gate): high polyreactivity

QVQLVESAGGLVQAGASLRLSCAASGIIFTRYAMGWYRQPPGKESELVAAITRSSGSTYYADSVKGRFTISRDNAKNTVYLQMNSLKPEDSAVYYCAADWVSRYQARPYFSAFNYWGQGTQVTVSS
polyreactivity (PSR sort gate): high polyreactivity
